In test [1] the target is T1, human MCAM (melanoma cell adhesion molecule) expressed on transfected CHO cells (human, UniProt P43121 24-646).
T1 construct: also called hMCAM; CD146
T1 chain: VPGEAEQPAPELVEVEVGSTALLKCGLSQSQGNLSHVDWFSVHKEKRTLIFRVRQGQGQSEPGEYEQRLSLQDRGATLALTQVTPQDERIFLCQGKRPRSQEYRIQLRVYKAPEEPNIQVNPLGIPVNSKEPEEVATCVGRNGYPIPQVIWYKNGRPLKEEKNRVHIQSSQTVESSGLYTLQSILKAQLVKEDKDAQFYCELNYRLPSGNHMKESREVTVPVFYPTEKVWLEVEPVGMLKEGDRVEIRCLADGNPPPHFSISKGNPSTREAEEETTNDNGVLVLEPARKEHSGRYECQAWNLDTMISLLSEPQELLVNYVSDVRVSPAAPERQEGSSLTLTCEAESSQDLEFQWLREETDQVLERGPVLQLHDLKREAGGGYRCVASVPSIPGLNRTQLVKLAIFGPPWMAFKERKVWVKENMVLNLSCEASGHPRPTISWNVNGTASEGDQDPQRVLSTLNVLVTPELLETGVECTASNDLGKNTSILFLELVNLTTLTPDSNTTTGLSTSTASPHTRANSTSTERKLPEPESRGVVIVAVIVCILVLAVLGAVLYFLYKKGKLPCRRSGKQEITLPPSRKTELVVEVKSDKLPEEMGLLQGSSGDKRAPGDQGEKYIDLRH
Briefly: flow cytometry, human MCAM CHO cells preincubated with antibody, competitor recombinant human laminin 411 at 20 ug/ml. As for the experimental part: The 87 independent mouse fusion clones and 26 independent rat fusion clones described in Example 10 above as being capable of (i) binding to human MCAM, and (ii) blocking the interaction between human MCAM and the α-4 chain of laminin were further characterized as follows. First, IC50 quantitation for the ability of the monoclonal antibody to block the binding of human MCAM to the α-4 chain of laminin was determined as follows. CHO cells expressing human MCAM were incubated with an anti-human MCAM antibody (at various concentrations) for 30 minutes at 4 degrees Celsius. […] Unbound laminin was then washed away, and the laminin bound to the surface of the cells was detected with fluorescently labeled anti-laminin antibodies. After washing, the amount of laminin bound to the surface was detected by flow cytometry, and IC50s were calculated based on the mean fluorescent intensity.
These six anti-MCAM monoclonal antibody clones are herein referred to as (i) the mouse anti-human MCAM monoclonal clones 1174.1.3, 1414.1.2, 1415.1.1, and 1749.1.3, and (ii) the rat anti-human MCAM monoclonal antibody clones 2120.4.19 and 2107.4.10. […] As such, each of these specific monoclonal antibodies was very capable of binding to human MCAM and inhibiting the interaction of cell-expressed human MCAM with its α-4 laminin binding ligand.
Background: A flow cytometer gives signals particle by particle.

Test [2] deals with T2, recombinant hMCAM-His (human, UniProt P43121 24-559).
T2 construct: not shown: His tag
T2 chain: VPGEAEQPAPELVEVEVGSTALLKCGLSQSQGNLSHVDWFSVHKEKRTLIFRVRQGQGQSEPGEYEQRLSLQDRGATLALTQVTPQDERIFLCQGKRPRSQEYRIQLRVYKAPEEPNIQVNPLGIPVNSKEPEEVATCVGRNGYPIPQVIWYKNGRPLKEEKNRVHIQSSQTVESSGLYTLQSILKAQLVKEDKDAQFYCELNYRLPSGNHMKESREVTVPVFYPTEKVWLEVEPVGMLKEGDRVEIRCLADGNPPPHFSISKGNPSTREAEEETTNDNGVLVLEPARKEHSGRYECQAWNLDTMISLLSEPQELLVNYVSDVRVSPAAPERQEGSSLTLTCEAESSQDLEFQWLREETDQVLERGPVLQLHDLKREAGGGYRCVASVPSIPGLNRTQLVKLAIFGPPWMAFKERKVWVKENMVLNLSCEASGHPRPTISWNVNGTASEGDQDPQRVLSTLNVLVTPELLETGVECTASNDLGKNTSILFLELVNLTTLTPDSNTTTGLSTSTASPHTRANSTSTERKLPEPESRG
Briefly: competitive ELISA on hMCAM-His, competitor biotinylated rodent or chimeric 2107; Expt. #1; vs rodent 2107. On the procedure:
(§1) ELISA plates were coated with recombinant hMCAM-His, and blocked with casein buffer to prevent non-specific binding. Biotinylated rodent or chimeric antibody was added at a subsaturating concentration, in the presence or absence of 3× increasing concentrations of unlabeled competitor (humanized antibody, rodent, or chimeric). After washing to remove unbound antibody, streptavidin HRP was added to allow detection of the biotinylated antibody. The ELISA was developed with TMB substrate and the OD450 was measured. The IC50 of the unlabeled competitor was determined using the GraphPad Prism5 software.

Test [3] concerns the target T2, recombinant hMCAM-His. Briefly: ForteBio Octet Red, hMCAM-His analyte; Forte column 2; vs rodent 2107. On the procedure:
(§2) The affinities were measured using the ForteBio Octet Red. Anti-human Fc sensors were used to capture the humanized antibodies, and several concentrations of hMCAMHis analyte were used to determine the affinity using a 1:1 fitting model.
(BLI is a label-free optical method that tracks binding on a fibre tip over time.)

Test [4] concerns the target T2, recombinant hMCAM-His. The test can be described thus: competitive ELISA on hMCAM-His, competitor biotinylated rodent or chimeric 2107; vs rodent 2107. As for the experimental part: as §1
For orientation: In an ELISA, binding on a coated surface is turned into a signal by an enzyme label.

Test [5] deals with T2, recombinant hMCAM-His. Briefly: competitive ELISA on hMCAM-His, competitor biotinylated rodent or chimeric 2107; Expt. #2; vs rodent 2107. As for the experimental part: as §1
The target in test [6] is T1, human MCAM (melanoma cell adhesion …). Briefly: laminin/FACS on hMCAM CHO cells, competitor laminin 411; Expt#1; vs rodent 2107. As for the experimental part:
(§3) Following incubation for 30-45 minutes, the cells were washed and anti-laminin conjugated to AF650 (NovusBio) was added to detect the bound laminin. The cells were run on a flow cytometer to measure the laminin binding signal.

In test [7] the target is T2, recombinant hMCAM-His. Briefly: ForteBio Octet Red, hMCAM-His analyte; Forte column 1; vs rodent 2107. On the procedure:
as §2

Test [8] has as its target T2, recombinant hMCAM-His. The test can be described thus: ForteBio Octet Red, hMCAM-His analyte; Expt. #1; vs rodent 2107. On the procedure:
as §2

In test [9] the target is T2, recombinant hMCAM-His. The test can be described thus: ForteBio Octet Red, hMCAM-His analyte; Expt. #2; vs rodent 2107. On the procedure: as §2
Test [10] addresses T2, recombinant hMCAM-His. Briefly: competitive ELISA on hMCAM-His, competitor biotinylated rodent or chimeric 1749; Expt. #2; vs rodent 1749. On the procedure:
as §1

In test [11] the target is T2, recombinant hMCAM-His. Briefly: ForteBio Octet Red, hMCAM-His analyte; Forte column 1; vs rodent 1749. As for the experimental part:
as §2

Test [12] addresses T2, recombinant hMCAM-His. Briefly: competitive ELISA on hMCAM-His, competitor biotinylated rodent or chimeric 1749; vs rodent 1749.
For test [13], the target named is T2, recombinant hMCAM-His. The test can be described thus: competitive ELISA on hMCAM-His, competitor biotinylated rodent or chimeric 1749; Expt. #1; vs rodent 1749. On the procedure: as §1
Test [14] concerns the target T2, recombinant hMCAM-His. Briefly: summary of ForteBio and competitive ELISA on hMCAM-His; vs rodent 1749. As for the experimental part:
as §1, §2

Test [15] addresses T1, human MCAM (melanoma cell adhesion …). Briefly: laminin/FACS on hMCAM CHO cells, competitor laminin 411; Expt#1; vs rodent 1749. On the procedure: as §3
The target is the same in test [16]. The test can be described thus: laminin/FACS on hMCAM CHO cells, competitor laminin 411; Expt#2; vs rodent 1749. On the procedure:
as §3

The target is the same in test [17]. Briefly: laminin/FACS blocking assay, % inhibition of laminin 411 binding to hMCAM-expressing CHO cells against antibody concentration; blocked ligand: laminin 411. As for the experimental part:
as §3

The target in test [18] is T2, recombinant hMCAM-His. Briefly: ForteBio Octet Red, hMCAM-His analyte; Expt. #2; vs rodent 1749. On the procedure: as §2
Test [19] addresses T2, recombinant hMCAM-His. The test can be described thus: ForteBio Octet Red, hMCAM-His analyte; Expt. #1; vs rodent 1749. As for the experimental part:
as §2

For test [20], the target named is T1, human MCAM (melanoma cell adhesion …). Briefly: summary of laminin blocking assay on hMCAM CHO cells, competitor laminin 411; vs rodent 1749. As for the experimental part: as §3
Test [21] deals with T2, recombinant hMCAM-His. Briefly: summary of ForteBio, hMCAM-His; vs rodent 2120. As for the experimental part: as §2
Test [22] has as its target T2, recombinant hMCAM-His. The test can be described thus: competitive ELISA on hMCAM-His, competitor biotinylated rodent or chimeric 2120; Expt. #1; vs rodent 2120. As for the experimental part:
as §1

In test [23] the target is T2, recombinant hMCAM-His. Briefly: ForteBio Octet Red, hMCAM-His analyte; Expt. #1; vs rodent 2120. On the procedure:
as §2

Numbering of substitutions follows the chain as printed.

Usually IC50 stands for the concentration needed to halve the response being measured.

B1: rat anti-human MCAM monoclonal antibody clone 2107.4.10 (antibody, V domains shown)
VH: QVQLKESGPGLVQSSQTLSLTCTVSGFSLTSNGVSWVRQPPGKGLEWIAAISSGGSTYYNSAFKSRLSISRNTSKSQVLLKMNSLQTEDTGMYFCARHRPFYFDYWGQGVMVTVSS
VL: DIQVTQSPSLLSASVGDRVTLNCKGSQNIYKSLAWFRLKRGEAPKLLIYDANSLQTGIPSRFSGSGSGTDFTLTITSLQPEDVATYFCQQYYSGYTFGAGTKLELK
notes: rat hybridoma antibody; elsewhere '83 or 84'); also called rodent 2107; murine 2107.4.10.18 anti-MCAM antibody
B1: the IC50 in test [1] was determined as 0.29 µg/mL. Also, the “fold over rodent (competitive ELISA)” value in test [2], in test [4] and in test [5] was 1 fold throughout. In addition, the “fold over rodent (Forte affinity)” value in test [3], in test [7], in test [8] and in test [9] was 1 fold throughout. In addition, the “fold over rodent (blocking, laminin/FACS)” value in test [6] turned out to be 1 fold.

B2: h1749VH2 + h1749VL2 (antibody, human IgG1, V domains shown)
VH: EVQLVESGGGLVQPGGSLRLSCAASGFTFSSYIMSWVRQAPGKRLEWVATISSGGSSTYYPDSVKGRFTISRDNAKNSLYLQMNSLRAEDTAVYYCTRDDDYDVKVFAYWGQGTMVTVSS
VL: DIVMTQSPDSLAVSLGERATINCKSSRSLLNSRIRKNYLAWYQQKPGQPPKLLIYWASTRESGVPDRFTGSGSGTDFTLTISSLQAEDVAVYYCKQSYNLLTFGQGTKVEIK
notes: also called humanized 1749 conservative VH and VL
For B2, the “fold over rodent (competitive ELISA)” value in test [10] is 1.46 fold; in test [12], 1.1 fold; in [13], 1.28 fold. The “fold over rodent (Forte affinity)” value came out at 0.7 fold in test [11], 1.09 fold in test [18] and 0.73 fold in test [19]. For the same molecule, in [14], the “fold reduction in affinity compared to the rodent” value was under 2 fold. Besides, the “fold over rodent (blocking, laminin/FACS)” value in test [15] was 1.8 fold; in [16], 1.7 fold. Also, in [17], the “IC50 (read off the curve)” value was about 0.4 µg/mL. Also, in test [20], the “fold reduction in potency compared to the rodent” value was under 2 fold.

B3: h1749VH1 + h1749VL1 (antibody, human IgG1, V domains shown)
VH: B2 VH with R44G
VL: B2 VL with T69S
notes: also called humanized 1749 standard VH and VL
As for B3, the “fold over rodent (competitive ELISA)” value amounted to 1.35 fold in test [10], 1 fold in [12] and 1.26 fold in test [13]. Also, the “fold over rodent (Forte affinity)” value in test [11] amounted to 2.5 fold; in test [18], 2.41 fold; in [19], 2.5 fold. In [14], the “fold reduction in affinity compared to the rodent” value is under 2 fold. Moreover, the “fold over rodent (blocking, laminin/FACS)” value in [15] and in [16] was 1.4 fold in each case. For the same molecule, the “fold reduction in potency compared to the rodent” value in test [20] is under 2 fold.

B4: h2120_VH3 + h2120_VL3 (antibody, human IgG1, V domains shown)
VH: QVTLKESGPVLVKPTETLTLTCTVSGFSLTSSGVSWVRQPPGKALEWIAAISSGGTTYYNSAFKSRLTISRDTSKSQVVLTMTNMDPVDTATYYCARRYGYGWYFDFWGQGTLVTVSS
VL: DIQMTQSPSSLSASVGDRVTINCKASQNIYNSLAWYQQKPGKAPKVLIFNANSLQTGIPSRFSGSGSGTDFTLTISSLQPEDFATYYCQQFYSGYTFGQGTKLEIK
B4: the “fold reduction in affinity as measured by ForteBio” value in test [21] was over 5 fold. Also, the “fold over rodent (competitive ELISA)” value in test [22] was determined as 3.47 fold. Further, the “fold over rodent (Forte affinity)” value in [23] was found to be 16.1 fold.

Values taken from US20150239980A1 (NEOTOPE BOSCIENCES, published 2015).
